Measurements as given in patent US20250136650A1, “COMPOSITIONS AND METHODS FOR DNA BINDING AND TRANSCRIPTIONAL REGULATION” (THE UNIVERSITY OF CHICAGO, priority 2021, published 2025).
Residue numbers refer to the chain shown, from its start. Entries after “also recorded” stand apart in the source; their conditions may differ. *1 amine or outer side, *2 acyl side, *3 side chain or, on linkers, in order; H or OH if unused. Bridges are numbered along the chain shown (N, C = ends). Roman numbers before positions name the chains, in order. [ ]: non-standard residue; d: D form. X1 = O=C1CC([*:1])C(=O)N1CC(=O)[*:2]; S5 = C=CCCC[C@](C)(N)C(=O)O

Columns and labels:
[1] = system: FJSTR72 (Fos/Jun-derived stapled bZIP dimer) (synthetic (human c-Fos/c-Jun)); test: EMSA
[2] = system: T1, STR22 (XBP1-derived stapled bZIP dimer) (synthetic (human XBP1)); test: cell_activity; conditions: +/-3.5; inhibition of XBP1s-induced luciferase in HeLa, 24 h
T1 sequence 1: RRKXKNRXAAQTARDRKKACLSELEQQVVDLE
T1 sequence 2: T1 sequence 1 with C20R, E25X

[3] = system: T1, STR22 (XBP1-derived stapled bZIP dimer) (synthetic (human XBP1)); test: competition; conditions: EMSA competition with unlabeled UPRE against 5 nM labeled UPRE
AP-1 site = test: EMSA, direct binding to AP-1 DNA probe
From the text: The DNA binding dimer STR22 (shown in FIG. 21 and FIG. 27) was synthesized. STR22 was subjected to EMSA to measure binding to either the UPR element (UPRE) or AP-1 binding site (AP-1).
(§1) bZIP transcriptional repressors FJSTR7 (shown in FIGS. 42 and 45), FJSTR71 (shown in FIGS. 52 and 53), and FJSTR72 (shown in FIGS. 52 and 54), were generated and tested.
Electrophoretic Mobility Shift Assays (EMSAs): For direct DNA binding experiments, STRs were serially diluted at 10× concentration in water and then 1 μL of STR solution was added to 9 μL of 5 nM IRD700-labeled DNA probe bearing either a UPRE or AP-1 motif in a final 1×binding buffer (20 mM HEPES pH 8.0, 150 mM NaCl, 5% glycerol, 1 mM EDTA, 2 mM MgCl2, 0.5 mg/mL BSA, 1 mM DTT, 0.05% NP-40). Samples were incubated for 1 hr at RT. 5 μL of each reaction was loaded on an 8% acrylamide, 0.5×TBE gel equilibrated to 4° C. Samples were resolved for 60 min at 110 V and 4° C. with 0.5×TBE+1 mM MgCl2 running buffer. Gels were pre-run at 110 V for 15 min prior to sample loading. For competition experiments, 30 or 60 nM STRs and 5 nM labeled UPRE probe were incubated with 0, 7.8, 13, 21.6, 36, 60 or 100 nM unlabeled competitor oligo for 1 hr at RT. […] ImageJ was used to quantify band intensity and the fraction of bound DNA was calculated by dividing the band intensity of bound DNA by the band intensity of free DNA from the vehicle treated lane. […]

Ebox site = test: EMSA, binding to Ebox site
From the text: as §1

MC38 tumors = test: Subcutaneous MC38 tumor model; format: in vivo; conditions: MC38-bearing mouse, intratumoral
cells = test: Fluorescent microscopy of cell penetration by FJSTRs; format: cell-based; conditions: FJSTR7 and FJSTR72 at 5 μM, FJSTR71 at 2 μM
From the text: as §1

[4] = target: T2, STR4 (XBP1-derived unstapled bZIP dimer, Met-to-Leu) (synthetic (human XBP1)) (UniProt P17861+P17861); test: EMSA; conditions: 20 mM HEPES pH 8.0, 150 mM NaCl, 2 mM MgCl2, RT 1 h
T2 sequence 1: T1 sequence 1 with X4L, X8V
T2 sequence 2: T1 sequence 1 with X4L, X8V, C20R, E25X

[5] = system: T1, STR22 (XBP1-derived stapled bZIP dimer) (synthetic (human XBP1)); test: EMSA; conditions: 20 mM HEPES pH 8.0, 150 mM NaCl, 2 mM MgCl2, RT 1 h; 14.17 nM reported in Example 4 (FIG. 2)

AP-1 site probe (FJSTR)
Kd [1]: 12 nM

3xUPRE luciferase reporter
IC50 [2]: 7400 nM

TGACGTGG (double strand) [UPRE consensus competitor (unlabeled)]
Ki [3]: 28.6 nM

I: Ac-IRRERNKMAAAKSRNRRRECI[S5]ELQ[S5]EIEQLE-NH2 / II: Ac-RKRMRNRIAASKSRKRKLERI[S5]RLK[S5]KIKTLK-NH2 (linker I:20-II:25 via X1; staple (Z) I:22-I:26, II:22-II:26) [FJSTR72]
Kd (AP-1 site): 12 nM
binding to Ebox site (Ebox site): does not bind to the Ebox site
tumor growth (MC38 tumors): reduces tumor growth
penetration of cells (cells): penetration; also recorded: capable of entering cells

TGACGTGG (double strand) [UPRE consensus probe]
Kd [4]: 49 nM
Kd [5]: 11 nM
